According to FireProtDB (doi:10.1016/s1570-9639(02)00548-4):
Where “and” joins values, the source holds several entries; their conditions need not be identical. Equal values may be shown once.

Details: pH 6, cacodylate 0.03 M, reversible: yes; for denaturant m value / denaturant midpoint (higher = more stable) / unfolding free energy: 25 °C, GdnHCl, KCl 0.1 M
[1] = Equus caballus, Thermal, CD, KCl

Sequence of Cytochrome c wild type, P00004 (P00004 whole entry): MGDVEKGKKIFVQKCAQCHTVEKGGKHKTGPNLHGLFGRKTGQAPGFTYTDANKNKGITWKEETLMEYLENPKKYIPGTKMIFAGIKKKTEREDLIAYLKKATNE
Sequence of Cytochrome c wild type, P62894 (P62894 whole entry): as the sequence (P00004 whole entry) above, with T48S, K61G, T90G counted along it

Substance | denaturant m value (Equus caballus, Absorbance) | denaturant midpoint (higher = more stable) (Equus caballus, Absorbance) | unfolding free energy (Equus caballus, Absorbance) | denaturant m value (Equus caballus, CD) | denaturant midpoint (higher = more stable) (Equus caballus, CD) | unfolding free energy (Equus caballus, CD) | Tm [1] | unfolding enthalpy (van 't Hoff) [1] | denaturant m value (Bos taurus, Absorbance) | denaturant midpoint (higher = more stable) (Bos taurus, Absorbance) | unfolding free energy (Bos taurus, Absorbance) | denaturant m value (Bos taurus, CD) | denaturant midpoint (higher = more stable) (Bos taurus, CD) | unfolding free energy (Bos taurus, CD)
Cytochrome c wild type, P00004 | 3.53 kcal/mol/M and 2.49 kcal/mol/M and 2.87 kcal/mol/M | 2.49 M and 2.35 M and 2.37 M | 8.83 kcal/mol and 6.01 kcal/mol and 6.81 kcal/mol | 2.69 kcal/mol/M and 3.48 kcal/mol/M and 3.39 kcal/mol/M | 2.5 M and 2.4 M and 2.45 M | 6.71 kcal/mol and 8.36 kcal/mol and 8.31 kcal/mol | 26.8 °C | 19.1 kcal/mol |  |  |  |  |  | 
Cytochrome c wild type, P62894 |  |  |  |  |  |  |  |  | 3.95 kcal/mol/M | 2.65 M | 10.5 kcal/mol | 4.02 kcal/mol/M and 4.03 kcal/mol/M and 3.91 kcal/mol/M | 2.63 M and 2.61 M | 10.6 kcal/mol and 10.2 kcal/mol
